These results are taken from article PMC4288178, “CRISPR RNA binding and DNA target recognition by purified Cascade complexes from Escherichia coli”.

Positions count from the first letter of the chain named.

Data set [1] has as its target T1, Cascade- (crRNA-free Cse1-Cse2-Cas7-Cas5-Cas6e) (Escherichia coli (K12; expressed in …, UniProt Q46901;P76632;Q46899;Q46898;Q46897 1-502;1-160;1-363;1-224;1-199).
T1 sequence 1: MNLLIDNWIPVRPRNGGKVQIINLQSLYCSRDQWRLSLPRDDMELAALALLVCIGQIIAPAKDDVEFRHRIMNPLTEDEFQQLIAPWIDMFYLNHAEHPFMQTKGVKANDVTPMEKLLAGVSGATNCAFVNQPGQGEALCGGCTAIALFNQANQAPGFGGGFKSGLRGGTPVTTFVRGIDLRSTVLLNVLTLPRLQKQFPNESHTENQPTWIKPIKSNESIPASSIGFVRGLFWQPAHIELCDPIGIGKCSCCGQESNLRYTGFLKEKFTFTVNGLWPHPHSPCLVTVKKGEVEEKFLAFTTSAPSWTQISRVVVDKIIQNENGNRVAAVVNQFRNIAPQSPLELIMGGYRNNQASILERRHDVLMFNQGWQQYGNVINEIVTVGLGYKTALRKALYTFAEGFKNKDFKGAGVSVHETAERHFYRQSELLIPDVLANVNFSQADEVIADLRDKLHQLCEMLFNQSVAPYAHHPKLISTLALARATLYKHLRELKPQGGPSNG
T1 sequence 2: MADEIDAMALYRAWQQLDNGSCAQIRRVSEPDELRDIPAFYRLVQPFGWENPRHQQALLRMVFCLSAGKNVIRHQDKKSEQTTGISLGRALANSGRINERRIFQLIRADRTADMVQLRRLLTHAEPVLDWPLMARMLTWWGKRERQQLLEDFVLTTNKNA
T1 sequence 3: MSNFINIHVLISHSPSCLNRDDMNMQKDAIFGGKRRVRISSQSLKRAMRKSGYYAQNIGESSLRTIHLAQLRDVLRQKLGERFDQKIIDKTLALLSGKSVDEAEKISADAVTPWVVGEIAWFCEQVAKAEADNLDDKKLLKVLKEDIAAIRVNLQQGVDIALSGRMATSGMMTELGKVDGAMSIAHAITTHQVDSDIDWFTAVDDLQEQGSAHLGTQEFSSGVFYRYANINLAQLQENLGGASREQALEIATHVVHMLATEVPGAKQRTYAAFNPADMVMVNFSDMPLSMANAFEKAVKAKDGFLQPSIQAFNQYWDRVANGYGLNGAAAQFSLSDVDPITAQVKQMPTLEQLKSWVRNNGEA
T1 sequence 4: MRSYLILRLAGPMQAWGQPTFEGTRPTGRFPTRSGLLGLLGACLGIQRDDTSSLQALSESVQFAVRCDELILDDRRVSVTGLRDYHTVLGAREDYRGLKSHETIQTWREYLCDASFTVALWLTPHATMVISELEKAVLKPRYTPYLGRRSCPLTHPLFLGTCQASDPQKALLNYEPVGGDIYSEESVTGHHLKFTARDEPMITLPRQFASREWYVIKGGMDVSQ
T1 sequence 5: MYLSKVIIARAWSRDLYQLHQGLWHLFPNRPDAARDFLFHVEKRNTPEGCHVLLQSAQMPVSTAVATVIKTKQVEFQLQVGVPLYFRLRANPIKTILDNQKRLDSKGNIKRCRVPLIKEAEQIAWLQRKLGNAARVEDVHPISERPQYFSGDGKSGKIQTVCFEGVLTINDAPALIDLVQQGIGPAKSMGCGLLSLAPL
Put plainly: EMSA; detectable binding; EMSA: 20 mM Tris-HCl pH 8, 20 mM NaCl, 10 nM 32P probe, 30 min at 30 or 37 C, 6% native PAGE; loading 10 min at 30 C with crRNA (0.5 uM in Fig 3). Kd values are printed only in Fig 5A (not in the material). The settings on record: protein: recombinant; tags: N-terminal 6His on Cse1 (CasA); copies: 1;2;6;1;1; label: 5'-32P. (A gel shift assay detects complexes by their altered migration in electrophoresis.)

Data set [2] deals with T1, Cascade- (crRNA-free …). The experiment in a line: EMSA; affinity slightly lower than crRNA1; EMSA: 20 mM Tris-HCl pH 8, 20 mM NaCl, 10 nM 32P probe, 30 min at 30 or 37 C, 6% native PAGE; loading 10 min at 30 C with crRNA (0.5 uM in Fig 3). Kd values are printed only in Fig 5A (not in the material). The note with it: protein: recombinant, tags: N-terminal 6His on Cse1 (CasA), copies: 1;2;6;1;1.

In data set [3] the target is T1, Cascade- (crRNA-free …). The experiment in a line: EMSA; loaded with crRNA1; EMSA: 20 mM Tris-HCl pH 8, 20 mM NaCl, 10 nM 32P probe, 30 min at 30 or 37 C, 6% native PAGE; loading 10 min at 30 C with crRNA (0.5 uM in Fig 3). Kd values are printed only in Fig 5A (not in the material). The note with it: protein: recombinant; tags: N-terminal 6His on Cse1 (CasA); copies: 1;2;6;1;1; label: DNA 5'-32P; guide + target strand.

The target in data set [4] is T2, Cascade+ (Cascade co-expressed with g8 crRNA) (Escherichia coli (K12; expressed in …, UniProt Q46901;P76632;Q46899;Q46898;Q46897 1-502;1-160;1-363;1-224;1-199).
T2 sequence 1: T1 sequence 1
T2 sequence 2: T1 sequence 2
T2 sequence 3: T1 sequence 3
T2 sequence 4: T1 sequence 4
T2 sequence 5: T1 sequence 5
The experiment in a line: EMSA; EMSA: 20 mM Tris-HCl pH 8, 20 mM NaCl, 10 nM 32P probe, 30 min at 30 or 37 C, 6% native PAGE; loading 10 min at 30 C with crRNA (0.5 uM in Fig 3). Kd values are printed only in Fig 5A (not in the material). The settings on record: protein: recombinant; tags: N-terminal 6His on Cse1 (CasA); copies: 1;2;6;1;1; label: DNA 5'-32P; guide + target strand.

Data set [5] has as its target T1, Cascade- (crRNA-free …). The data set is described as above. The settings on record: protein: recombinant, tags: N-terminal 6His on Cse1 (CasA), copies: 1;2;6;1;1.
Setting [6] is: label: DNA 5'-32P, guide + blunt duplex.

For AUAAACCGCUGUCUUUCGCUGCUGAGGGUGACGAUCCGCCGAGUUCCCC (ssRNA) [crRNA13 (-8/+9)], the binding result with Cascade- (crRNA-free …) [1] is given as “binds”.

On to AUAAACCGCUGUCUUUCGCUGCUGAGGGUGACGAUCCGCCGAGUU (ssRNA) [crRNA7 (-8/+5)], for which the binding result with Cascade- (crRNA-free …) [2] (label: 5'-32P) was “binds”.

B1: g8 crRNA + g8 ssDNA (mixed)
RNA: AUAAACCGCUGUCUUUCGCUGCUGAGGGUGACGAUCCGCCGAGUUCCCCGCGCCAGCGGGG
DNA: CAGGGAGTTAAAGGCCGCTTTTGCGGGATCGTCACCCTCAGCAGCGAAAGACAGCATCGGAACGAGGGTAGCAACGGCT
B1: the binding result (with Cascade- (crRNA-free …) [3]; in data set [4]) was “binds” throughout.

B2: crRNA7 (-6/+5) + g8 dsDNA (mixed)
RNA: AAACCGCUGUCUUUCGCUGCUGAGGGUGACGAUCCGCCGAGUU
DNA 1: B1 DNA
DNA 2: AGCCGTTGCTACCCTCGTTCCGATGCTGTCTTTCGCTGCTGAGGGTGACGATCCCGCAAAAGCGGCCTTTAACTCCCTG
In the case of B2, the binding result with Cascade- (crRNA-free …) [5] (setting [6]) is recorded as “no binding”.

B3: poly-A handle crRNA9 + g8 dsDNA (mixed)
RNA: AAAAAAAACUGUCUUUCGCUGCUGAGGGUGACGAUCCGCCGAGUU
DNA 1: B1 DNA
DNA 2: B2 DNA 2
Turning to B3, in the data set with Cascade- (crRNA-free …) [5] (setting [6]), the binding result was “no binding”.

B4: crRNA7 (-8/+1C) + g8 dsDNA (mixed)
RNA: AUAAACCGCUGUCUUUCGCUGCUGAGGGUGACGAUCCGCCC
DNA 1: B1 DNA
DNA 2: B2 DNA 2
Turning to B4, the binding result with Cascade- (crRNA-free …) [5] (setting [6]) is given as “binds”.

B5: poly-C handle crRNA + g8 dsDNA (mixed)
RNA: CCCCCCCCCUGUCUUUCGCUGCUGAGGGUGACGAUCCGCCGAGUU
DNA 1: B1 DNA
DNA 2: B2 DNA 2
On to B5, for which the binding result in the data set with Cascade- (crRNA-free …) [5] (setting [6]) is listed as “no binding”.

B6: crRNA2 + g8 dsDNA (mixed)
RNA: B1 RNA
DNA 1: B1 DNA
DNA 2: B2 DNA 2
modifications: no 2',3'-cyclic phosphate on crRNA
For the molecule B6, the binding result with Cascade- (crRNA-free …) [5] (setting [6]) is reported as “binds”.

B7: crRNA7 (-8/+1G) + g8 dsDNA (mixed)
RNA: B4 RNA with C41G
DNA 1: B1 DNA
DNA 2: B2 DNA 2
Regarding B7, the binding result in the data set with Cascade- (crRNA-free …) [5] (setting [6]) was “binds”.

B8: crRNA7 (-7/+5) + g8 dsDNA (mixed)
RNA: UAAACCGCUGUCUUUCGCUGCUGAGGGUGACGAUCCGCCGAGUU
DNA 1: B1 DNA
DNA 2: B2 DNA 2
For the molecule B8, the binding result with Cascade- (crRNA-free …) [5] (setting [6]) is “no binding”.

B9: crRNA7 (-8/+1U) + g8 dsDNA (mixed)
RNA: B4 RNA with C41U
DNA 1: B1 DNA
DNA 2: B2 DNA 2
As to B9, the binding result in the data set with Cascade- (crRNA-free …) [5] (setting [6]) is on record as “binds”.

B10: crRNA2 (-8/+21), no cyclic phosphate (structured_RNA)
RNA: B1 RNA
modifications: no 2',3'-cyclic phosphate
Regarding B10, in the data set with Cascade- (crRNA-free …) [5] (label: 5'-32P, 3' handle hairpin), the binding result was “binds”.

B11: crRNA7 (-8/+1A) + g8 dsDNA (mixed)
RNA: B4 RNA with C41A
DNA 1: B1 DNA
DNA 2: B2 DNA 2
B11: the binding result with Cascade- (crRNA-free …) [5] (setting [6]) is listed as “binds”.

B12: crRNA7 (-8/+5) + g8 dsDNA (mixed)
RNA: B3 RNA with A2U, A6C, A7C, A8G
DNA 1: B1 DNA
DNA 2: B2 DNA 2
For the molecule B12, the binding result with Cascade- (crRNA-free …) [2] (setting [6]) is recorded as “binds”.

B13: crRNA12 (-8/+11) (ssRNA)
RNA: AUAAACCGCUGUCUUUCGCUGCUGAGGGUGACGAUCCGCCGAGUUCCCCGC
For the molecule B13, the binding result with Cascade- (crRNA-free …) [1] is “binds”.

B14: crRNA11 (-8/+18) (ssRNA)
RNA: AUAAACCGCUGUCUUUCGCUGCUGAGGGUGACGAUCCGCCGAGUUCCCCGCGCCAGCG
Consider B14, for which the binding result with Cascade- (crRNA-free …) [1] is on record as “binds”.
